We go through 4 molecules from publication PMC9537309, “The solution structure of Dead End bound to AU-rich RNA reveals an unusual mode of tandem RRM-RNA recognition required for mRNA regulation”.

Data set [1] has as its target T1, DND1 RRM12 (tandem RRMs) WT (human, UniProt Q8IYX4 12-235).
T1 sequence: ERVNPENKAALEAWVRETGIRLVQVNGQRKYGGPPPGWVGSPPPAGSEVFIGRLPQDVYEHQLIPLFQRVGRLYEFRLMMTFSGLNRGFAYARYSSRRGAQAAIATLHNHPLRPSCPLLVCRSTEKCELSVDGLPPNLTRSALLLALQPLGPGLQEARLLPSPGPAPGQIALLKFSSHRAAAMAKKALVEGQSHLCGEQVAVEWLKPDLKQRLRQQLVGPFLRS
Nature of the data set: ITC; N = 1.04; text and Supplementary Table 2 print 0.68; ITC: 100 mM potassium phosphate pH 6.6, 1 mM 2-mercaptoethanol, 25 C; NMR: 100 mM potassium phosphate pH 6.6, 1 mM DTT, 298 K (or 20 mM MES pH 6.6, 100 mM NaCl); Supplementary Fig. 3: 25 mM NaCl, 2 mM DTT, pH 6.3, 303 K. The following applies: protein: recombinant; tags: N-terminal 6xHis, TEV-cleaved; label: selective 13C-ribose in some structure samples; unlabeled in titrations. A general note: Isothermal titration calorimetry measures the heat released or taken up as one component is titrated into another.

A further data set concerns the target T2, DND1 RRM12 T135A (human, UniProt Q8IYX4 12-235, T135A).
T2 sequence: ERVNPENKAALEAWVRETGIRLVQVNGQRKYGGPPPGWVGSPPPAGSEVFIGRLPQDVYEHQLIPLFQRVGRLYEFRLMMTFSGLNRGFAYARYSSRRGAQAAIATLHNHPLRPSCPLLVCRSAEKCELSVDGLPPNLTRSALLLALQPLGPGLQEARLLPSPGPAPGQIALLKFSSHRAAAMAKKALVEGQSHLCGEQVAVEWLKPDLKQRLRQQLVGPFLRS
As to the kind of experiment: NMR titration; binding not reduced; ITC: 100 mM potassium phosphate pH 6.6, 1 mM 2-mercaptoethanol, 25 C; NMR: 100 mM potassium phosphate pH 6.6, 1 mM DTT, 298 K (or 20 mM MES pH 6.6, 100 mM NaCl); Supplementary Fig. 3: 25 mM NaCl, 2 mM DTT, pH 6.3, 303 K. The following applies: protein: recombinant; tags: N-terminal 6xHis, TEV-cleaved; label: selective 13C-ribose in some structure samples; unlabeled in titrations.

Another data set deals with T3, DND1 RRM12 M90A (human, UniProt Q8IYX4 12-235, M90A).
T3 sequence: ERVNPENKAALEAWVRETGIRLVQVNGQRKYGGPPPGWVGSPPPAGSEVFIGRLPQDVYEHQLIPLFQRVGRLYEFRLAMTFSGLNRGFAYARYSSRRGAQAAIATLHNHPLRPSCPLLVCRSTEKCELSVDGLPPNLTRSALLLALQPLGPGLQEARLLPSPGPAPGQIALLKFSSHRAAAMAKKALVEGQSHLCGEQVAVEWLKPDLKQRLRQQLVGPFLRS
As to the kind of experiment: NMR titration; ITC: 100 mM potassium phosphate pH 6.6, 1 mM 2-mercaptoethanol, 25 C; NMR: 100 mM potassium phosphate pH 6.6, 1 mM DTT, 298 K (or 20 mM MES pH 6.6, 100 mM NaCl); Supplementary Fig. 3: 25 mM NaCl, 2 mM DTT, pH 6.3, 303 K. The following applies: protein: recombinant; tags: N-terminal 6xHis, TEV-cleaved; label: selective 13C-ribose in some structure samples; unlabeled in titrations.

In the next data set the target is T4, DND1 RRM12 R98A (human, UniProt Q8IYX4 12-235, R98A).
T4 sequence: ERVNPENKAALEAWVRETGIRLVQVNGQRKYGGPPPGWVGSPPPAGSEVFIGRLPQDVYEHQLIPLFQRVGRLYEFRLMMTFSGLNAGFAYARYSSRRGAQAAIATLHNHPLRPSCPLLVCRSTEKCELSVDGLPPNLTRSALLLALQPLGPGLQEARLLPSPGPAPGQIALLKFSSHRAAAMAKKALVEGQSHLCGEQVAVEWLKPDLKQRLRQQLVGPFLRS
The description is as above. Conditions: protein: recombinant; tags: N-terminal 6xHis, TEV-cleaved; label: selective 13C-ribose in some structure samples; unlabeled in titrations.

In a further data set the target is T5, DND1 RRM12 K197A (human, UniProt Q8IYX4 12-235, K197A).
T5 sequence: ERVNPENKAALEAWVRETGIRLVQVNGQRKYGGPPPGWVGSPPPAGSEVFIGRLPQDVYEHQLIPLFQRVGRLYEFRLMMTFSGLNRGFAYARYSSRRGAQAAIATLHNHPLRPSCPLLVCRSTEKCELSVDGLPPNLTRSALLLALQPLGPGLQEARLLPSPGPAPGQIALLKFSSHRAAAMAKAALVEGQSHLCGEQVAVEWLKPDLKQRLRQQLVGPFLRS
Nature of the data set: ITC; N = 0.98; ITC: 100 mM potassium phosphate pH 6.6, 1 mM 2-mercaptoethanol, 25 C; NMR: 100 mM potassium phosphate pH 6.6, 1 mM DTT, 298 K (or 20 mM MES pH 6.6, 100 mM NaCl); Supplementary Fig. 3: 25 mM NaCl, 2 mM DTT, pH 6.3, 303 K. The following applies: protein: recombinant; tags: N-terminal 6xHis, TEV-cleaved; label: selective 13C-ribose in some structure samples; unlabeled in titrations.

The next data set addresses T6, DND1 RRM2 (human, UniProt Q8IYX4 136-227).
T6 sequence: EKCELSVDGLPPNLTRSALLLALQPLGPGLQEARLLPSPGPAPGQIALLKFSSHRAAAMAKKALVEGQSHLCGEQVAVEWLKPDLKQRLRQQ
As to the kind of experiment: NMR titration; ITC: 100 mM potassium phosphate pH 6.6, 1 mM 2-mercaptoethanol, 25 C; NMR: 100 mM potassium phosphate pH 6.6, 1 mM DTT, 298 K (or 20 mM MES pH 6.6, 100 mM NaCl); Supplementary Fig. 3: 25 mM NaCl, 2 mM DTT, pH 6.3, 303 K. Conditions: protein: recombinant; tags: N-terminal 6xHis, TEV-cleaved.

In data set [2] the target is T1, DND1 RRM12 (tandem RRMs) WT. Nature of the data set: NMR titration; highest affinity of the three oligos; ITC: 100 mM potassium phosphate pH 6.6, 1 mM 2-mercaptoethanol, 25 C; NMR: 100 mM potassium phosphate pH 6.6, 1 mM DTT, 298 K (or 20 mM MES pH 6.6, 100 mM NaCl); Supplementary Fig. 3: 25 mM NaCl, 2 mM DTT, pH 6.3, 303 K. The following applies: protein: recombinant; tags: N-terminal 6xHis, TEV-cleaved.

For the next data set, the target named is T7, DND1 extended RRM1 (human, UniProt Q8IYX4 12-139).
T7 sequence: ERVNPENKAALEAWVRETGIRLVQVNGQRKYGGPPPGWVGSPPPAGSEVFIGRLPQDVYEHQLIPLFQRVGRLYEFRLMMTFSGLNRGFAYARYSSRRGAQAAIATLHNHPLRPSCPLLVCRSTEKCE
Nature of the data set: NMR titration; ITC: 100 mM potassium phosphate pH 6.6, 1 mM 2-mercaptoethanol, 25 C; NMR: 100 mM potassium phosphate pH 6.6, 1 mM DTT, 298 K (or 20 mM MES pH 6.6, 100 mM NaCl); Supplementary Fig. 3: 25 mM NaCl, 2 mM DTT, pH 6.3, 303 K. Conditions: protein: recombinant; tags: N-terminal 6xHis, TEV-cleaved.

On to CUUAUUUG (ssRNA), for which the dissociation constant Kd in data set [1] is 690 ± 30 nM; with DND1 RRM12 K197A, 2600 ± 100 nM. Besides, the values for the binding result with DND1 RRM12 T135A, with DND1 RRM12 M90A and with DND1 RRM12 R98A were “binds”, “no binding” and “no binding”, respectively.
As for UUAUUU (ssRNA), the binding result with DND1 RRM2 is reported as “no binding”; in data set [2], “binds”.
Consider UUUUUCC (ssRNA), for which the binding result with DND1 RRM2 and in the data set with DND1 extended RRM1 was “no binding” throughout.
For the molecule UUUUUAC (ssRNA), the binding result with DND1 RRM2 and in the data set with DND1 extended RRM1 was “no binding” throughout.

What is called Kd is the free concentration of one partner at which half of the binding sites on the other are occupied at equilibrium, for simple one-to-one binding.
